# In the DeepSol protein solubility set:
# Experiment: soluble on expression in E. coli; label from the status in PepcDB or PDB records
row,Sequence,soluble on expression in E. coli
1,MGSDKIHHHHHHFNQYRENVELTAQRLEATYRASNILNLGVACLKKHFGFLGMEINWSTGSVTWFDDFRKRVLLQSDGDAWENVFSLLDTEKYYNLSSDIDFSTEASKLGFSNFEAVAIPFKNNPFFALLVVRAQVGKAVVYKYAVLSSDFLNKYAYFTEKETRPDGDKIYFITQDIIDGPFRSNDVIHVKGEPLFKGSVEFKDIDLEAGEGPRYENPPPKYLTEEDIKKYNIEKIKDYYSQQIERIVKPASEVVLSSEPVGIELPSINEFVESWEEKENDKTIYYKKQREIVYTLEFNTPKGSSGNDYLIKVSYKEVYRIYKSEDQEKWNFVREEVLGEGELFHIKSKPNSDQYHLVLQGNEAREFLGLDRNEYDIYFNGVIKTDNDVYLKNMSEGNIKPMFVDGRYTIVANNIYIEDHIIYNDYREVLEEIADKEKISGNSDQKIAQAVIRKLGVDGNIEEDYSELLKNHESDDFLNLVAYKNVVITDKKPNMKIFASIYAFTGSFYVKGYNEKDFLKNNERELTERELTIFGSLAQYVRGAVGTFYWSRDGKPTIKTGYRKNYIYDWRILKGFSVFGTPTVPKESNILNVREVY,not soluble
2,MGSDKIHHHHHHGGCVRDVIDDVPGTDEDYAADKKDVVLIRMGTNDAEVKDITSRLFNNIPSSWEIGKKTIVDYDKMKDPETELNADIKNPKIYMTVILNIDDVISGKYPISLFRMLKFYKRDFYVIATQSTPEQKEEMLSLIGVYMEAGYYAINYDNVQHYRIFPSADPYAKDNMIGKGVASFNQKLLTRSADTLPEGNDPDPGYNAQMADKEALKRIEIYNRIYGYAQGDMNYSMQAVPYKMKPGAAPDVIIDNSWAIDAYNFQIYSKNNNCILSITNNAGNGFTANIKDYTTPKGANVYAYIWNLMREASSEITVHSDGGIFREISYQPQTVNHGASYTENSFWKVSVSVSPTKLEDKPWEAFKVSFGKESSTEVSYKTKSMDYSCKGQFGNGLYSKLWQFIPGEFYDRAEAFVYETSQGLRWIDAAQAMTPNYVTWGGWTLRQNYLNHINNSMKLHQQQCIYSLESDAQPGVVSVAITDAIDLQKTYVHYNCGIRYGHDSARTDLKMSKMVWIDFRQWDN,not soluble
3,MGSDKIHHHHHHGNSKSRNDRTETVDKEVIKAPEFDADSAYQYIQVQADFGPRVPNTQAHKECGEYLAGQLEKFGAKVYNQYADLIAYDGTILKSRNIIGAYKPESKKRILLCAHWDSRPYADNDPDPKNHHTPILGVNDGASGVGVLLEIARQIQKEQPALGIDIVFFDSEDYGIPEFYDGKYKQDTWCLGSQYWARTPHVQNYNARYGILLDMVGGKDATFYYEGYSARTARSEMKKIWKKAHELGYGKYFVKEDGGETVDDHIYVNKLARIPCVDIINYDAGNPQSSFGSFWHTVNDTMENIDRNTLKAVGQTVMDVIYNEK,not soluble
4,MGSDKIHHHHHHLKLTKNIVSIVTDVILNESEAIKNLVNHINDDFQHIIDAILSCKGRVVITGIGKSAIIGNKIVATLNSTGTPALFMHAADAIHGDLGMIQGGDVVICISKSGNTPEIKVLVPLIKNRGTILIGMVGNVDSYLAVQSDYVLNVTVEREACPNNLAPTTSTTATLVMGDALAVALLECRNFSSEDFAQLHPGGALGKQLYLRVNDVYTANEKPMVAPDATVKDVILEISSKRLGAAAVVDSAGILQGIITDGDLRRMLNAHDSFKQLCAADIMTKAPKTIDADEFAASAMLLMQSKNITQLIVMKNENFAGFIHIHDLLKEGIV,not soluble
5,MGSDKIHHHHHHLLDYAGAIEEFSHALQLTPYFAEAYLQRGLAYYDSGAILKAVSDYTEALKLNPESVEAYYCRGLARVALKNLPGALEDVERAIRLNLNYAAAYNLRGMVRRKQGYVQDAIANFKKAAQLYLEQQDKENCRLCLERIKQLQPQELPVLQQSRSPNAPILSTNDYFTQLLEKAEKGDTQEALADLNWVLKADSQDAQAYCCRGVVRCKMGDYREAIADFNQALRLNFQDAIVYRNRGKARSILGDHQGAIADLNQALQMQPQDALVYIARGNAYRSTGNYLGAIQDYTQALQINPDDAQAYYNRGIAYTCLEEMQNAVEDYQRAASIFCEQEDWGNYQQVLSSLEKIQKFSPQSKKQKYNLLHQRLLQMVGGYWEIAERLIQQKQDYHPGMSDEWYLQKVIDDLERDRGR,not soluble
6,MGSDKIHHHHHHLNTDPSTAVPSDDAIKNIDDAQVALNGIYRLASAHSYYGDNYLYYADCRGEDVQARINKGAGRRVSPYYFFDVTADDNFNITLVWNQPYKVIHQANSLIEKLDAGNAGNARPEEVARIKSEALAMRGLALFDLTRLFGMPYTLDNGASLGVPIEIQTTLEDHAPERNTVAQCYEQVLKDLNDALGGLTKEKHDAYMNYWSVKALLSRVYLYMNDNENALKCAEEVINDNGGIYRLFTHDEYPSVWGKDFNSESLFEFYFTMSEPSGGSGGEGAPMVYADNVKDWNNLILTKAYLDLLNEDPEDVRHVFPHLPENAVADTLPVAAKGQPKYLIKYPGKSGSVTDAVSTVNPQDNDLCILRLSEVYLNAAEAAFKIGNTEKALTYLNAIVTRANPAKSVTSADLSLERILKERRKELVGEGHAFFDYMRNGKSVDRSGGWHLTMPEDARVIAPSDPRVALPIPQTEIDANPNIVQNPR,not soluble
7,MGSDKIHHHHHHLPAHLTPIQMEPEKALLRVHCQSDIDQLLSESVVFTLLSERNLGPKMLGVFPGGRFEQFIPSRALQCLEISKPGLSKLIAPIVARVHTLDAPIPKEPQTLQTARQWLERFKKTPAGERPIEMYLTQAKVPKSDYPSTITVAQLERELNFVEFFLQHSHSPVVFSHNDLQEGNFLLIDGYKLADDGTVLTPDGKPTNDDPLSLIDFEYCSYNYRGFDLGNHFCEYGYDYNEAEAPYYKIHQHYFEVEKERKVFCEAYLDEVYKMRACGDNPHFPSDLVTGDREKDLNKIIEESILFMPVSNIFWVCWSLINAEESSIAFDYGAYGRDRLALYFHQKKNLEKYLSNL,not soluble
8,MGSDKIHHHHHHLRASSSIRVGAERAHLAIGAASKRMADLEASIGVQLFERHARGVALTAAGEALERHTQRILNDMDRMTAEMSDYAAGVVGVVRLWANTSSVTQFLPTDIAAFSVVHPDIRIELEEQDSEQVALAVVDGAADFGIMADRMPTLGLQAMLYRKDHLFLVVPDGHPLTQRESVSFVDALEFDFVSLARNTSLAKRLQAATAFSGGQIKLRIQVRSFDAMCLMVAAGPGIAILPDAAVGPHLRSMDLCRIPLSENWTRRELFICARDLNALPRPASLLVNHLIGATPDAVAVR,not soluble
9,MGSDKIHHHHHHMAAIAGLYVYPIKGLDSEHRSTATLRTHGQLHHDRTFTLVDSDTGSIVTAKRRPALHAFRTDYEPETGTLTVTDPDGQRASFSLGDDEGLSAAGDWFDSRLAVSVSMRSDPTGFVDRSDMGPAVVSTATLEAIADWFDSMTVAGARRRLRANIEIEGVPAFWEDRFVGDGAPAFEVGGVRFEGVTPCNRCVVPSRDPDTGEQLPEFRKTFCANRERTFPEWADGDAFDHEYAAMILARAPDISGGETLAVGDGVAVLDEAA,not soluble
10,MGSDKIHHHHHHMADETISLDYYAPRFRVEIDGETIPQDGIVSVEVDETLDAPAMVSLAFNETLDPRSQTFAWLDNPKLVPGAEVKVFLGYTGRAVPAPKPLFEGRLHTLTPAFQNSGVPSLMVQGYDHSHGLQKVKSHFSRTNARASDAASEIARLNGLDASGVEATATVHPSIRQGEDEVDLEFLRRLARDLGFEVFVRGKALMFRTPADEETELLTFQWGRNLVSFTPRLSTSAQVSEVRVRGWNPATKERIEGKATVADLKGLAGGVSGAEQAGSGGEPVVRSIEDRPVFSREEADALARAELNRLNDGFITGTGETIGMPELRPGITVAIQGIGTRFSGRYYVKGARHSLGDSGYRTTFEVRRNALGSL,not soluble
11,MGSDKIHHHHHHMADFSNQIITIKKGLDLPIAGEPRQIIESGNKPSQVAILGEEYVGLKPTMLVEVGDKVKKGQPLFEDKKTKGVLFTAPASGEIVAINRGDRRVLQSVVIGCDGLDVNEQIRFDILPDVISLSRQVVQDQLVSSGLWTALRTRPFSRVPALDSQPAGIFVTAIDTNPLAADPRLIIAEQLEAFKTGLQVLTRLTEGKVYLCQDKGDAIACDVSPNLEIRRFTGVHPAGLAGTHIHFTLPVSLERQVWHIGYQDVIAYGKLFQTGELYTDRIIALGGPSVLNPRLLRTQLGAELSVLVADEIKPGNNRVVSGSVLSGHTAAGVHDFLGRFHNQVSVLAEDAQHQVLPWVRGGSDKFSITRAVTSRLFGASKRFEFTTHQGGSQRAMMAFGQLDRVMPLDILPTLLVRDLVVRDTDEAQALGALELDEEDLALCTFVCPGKYDFGKELRACLDVIEREG,not soluble
